Data set [1] concerns the molecule itself. As to the kind of experiment: AUC; sedimentation velocity, 500 mM KCl, 20 mM HEPES, 1 mM TCEP, pH 7.9, 20 °C; FL 0.46 and ΔC20 0.57 mg/ml as printed; dimers and higher-order oligomers.
Data set [2] concerns the molecule itself. The data set is described as follows: SEC; size exclusion chromatography of recombinant untagged protein; dimer and higher-order assemblies. On the technique in general: SEC sorts molecules by how far they enter the pores of the column.

B1: recombinant untagged full length rat RBPMS-A (natural protein)
chain: not shown
notes: RBPMS isoform A (RBPMS-A), rat, cDNA NCBI XM_006253240.2, full length open reading frame; it may be the rat protein; Exists as a mixture of dimers and higher-order oligomers; also called FL RBPMS; FL; source: E. coli BL21 (DE3), purified (Histrap, TEV cleavage, mono Q, Superdex 200); not shown: His6, N-terminal, cleaved
A word on the stoichiometry N: it is a count of units in the complex or per binding partner. Consider B1, for which the “stoichiometry N” value in data set [1] was around 21; in data set [2] it was 2.
